Source: the supplement of paper PMC12042874
± gives the uncertainty stated by the source.

Experiment: amyloid nucleation score (Sup35N fusion, yeast selection) (log enrichment); library NNK1; higher = more nucleation; inactive = no reads after selection
Method in brief: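 On medium lacking adenine and uracil, psi-negative yeast expressing peptides of 20 random codons fused to Sup35N were grown 7 days at 30°C after a 24-hour induction with 100 μM copper sulfate. Illumina sequencing of input and output plasmid inserts gave the reads, and sequences under 100 input reads were excluded. The nucleation score is the DiMSum log enrichment of output over input reads, centred on the mode score of non-aggregating sequences.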

Substance	amyloid nucleation score
NMGSFELWYYGLKASVGFAN	0.513 ± 0.4
NMKRQRAHPMFS	-0.707 ± 0.45
NMNNGDMSSVVVVIRVFCLI	5.38 ± 0.093
NMRTNQDKSCGCCQLPVQAG	-0.119 ± 1.2
NMTAYSRCSSRTWYTVVFSG	1.71 ± 0.15
NMVLRPHVMYAWNEPELGNC	-0.22 ± 0.39
NNANCMCSNTCHVFWANHAR	6.193 ± 0.061
NNCLWLLGPRFPCVIMLVPA	2.18 ± 0.14
NNEPGLGEK	-0.598 ± 0.92
NNFFITVHSLLIRSSTHMR	0.015 ± 0.37
NNGRLYVTIRLMDINLVVHT	0.616 ± 0.43
NNKCWNIVRLVHRSLTLTRH	inactive
NNLLLSYSSFYMLMFQ	3.42 ± 0.076
NNLRLKGKKRSYRCSVIDLT	-0.256 ± 0.39
NNMLAWWVSLTSSQT	0.512 ± 0.39
NNNAMQVDVILMRFWVKVAV	0.492 ± 0.89
NNPLLIPAYPTRNQKVKLIK	0.108 ± 0.39
NNTFVIVKFEAKDTFVEGVR	1.57 ± 0.3
NPGPYRARHSSDSWRGNYNE	-0.366 ± 0.58
NQILRLMCWTFYFRESSKSY	inactive
NQRYHYLAAQWVDSWLVGCS	-0.256 ± 0.6
NQYLPS	-0.126 ± 1.2

Substance	amyloid nucleation score
NQYMIQGKVSRSNIMCLGMR	-0.067 ± 0.21
NRANSVVGQACRKSVIRNRF	-0.144 ± 0.32
NRISALWSTMLWFAY	-0.008 ± 0.27
NRIVADSESYCTSCLAVCAH	0.177 ± 0.3
NRLNGNLPLNHR	0.014 ± 0.51
NRLWSIRK	-0.425 ± 0.34
NRMLSSKQAPSQNFQ	0.814 ± 0.46
NRPHFKGNQCPQDIS	-0.217 ± 0.22
NRRLIIVNFVQSKDTCEWRG	2.77 ± 0.21
NRVSFYATTNFSISRFGSWG	inactive
NRYFRMCFRLWFDPTWSVRA	0.681 ± 0.85
NRYSYYFLLI	3.16 ± 0.1
NSAILITNIECLYNIITLFT	6.389 ± 0.048
NSAKLIARLWMMWDLATSDW	-0.89 ± 0.46
NSCICLTRD	-1.27 ± 1.7
NSDSIGIRVFDV	0.242 ± 0.99
NSILFNGTQLD	-0.976 ± 0.35
NSLCRLSGCCGVLRDLPLVM	-0.232 ± 0.33
NSPRPSLLCCPCGKAYLHFR	-0.282 ± 1.2
NSREYDRATGNGGTEGKSVT	-0.45 ± 1.1
NSSTVDFSYTNYVRVLLLIA	-0.745 ± 0.8
NSVIFELISSCVNDSNVAGD	1.45 ± 0.63

Substance	amyloid nucleation score
NSVYGTIDYGPHCFVNEGNF	inactive
NSYQSSFSEFAASICFDTAE	-2.5 ± 2.4
NTADTFMNLAILSC	0.148 ± 0.35
NTALMWVMMIVIWSVVSFTS	-0.8 ± 1.4
NTANIIDTGGDSTPLISRSC	-0.958 ± 0.96
NTHKLSGLI	0.149 ± 0.41
NTNLVWR	0.267 ± 0.36
NTQFHCDDFQLVHDIQ	0.214 ± 0.38
NTSEIPCCVIQEWFYCTFYL	7.503 ± 0.044
NTSSLVMVSCDTPRYTNTEV	-1.04 ± 0.72
NTSWGYFR	-0.426 ± 0.52
NTVQNSMG	inactive
NVAGMSPQSWVVDTSSR	1.34 ± 0.4
NVDRSCWRRECPDCWVMLNM	0.664 ± 0.49
NVFILMCITKRFCNWLNISS	-0.773 ± 1.5
NVGLGRWSFCGSMSVK	-0.688 ± 0.58
NVGQPRNVVDSIQ	0.67 ± 0.23
NVKLFFNIFVGKSKIHTTPW	6.308 ± 0.058
NVMNVIGGENWVSGFDCMGR	inactive
NVRLHVVYVSPSYACFIWSW	0.343 ± 1.4
NVSEVCKYYPLFRSD	-0.007 ± 0.23
NVSGNEMISGAFGIDEIDGS	0.189 ± 0.9

Substance	amyloid nucleation score
NVTSAR	0.185 ± 1.1
NVYLMKLDWTIKMWWA	0.638 ± 0.69
NWGENWRLGMSSIREESGAE	-0.735 ± 2.1
NWICKRVIYEYFSTQIYSSG	-0.133 ± 0.55
NWINNRG	1.03 ± 0.32
NWLNWLTHLFS	0.407 ± 0.49
NWLTTQNI	-0.371 ± 0.42
NWMTLRWVLGGLSNGFDGSH	4.41 ± 0.073
NWSRPSSNLGGGPSSAVREG	0.764 ± 0.52
NYAYCSLVVEDSVK	8.284 ± 0.063
NYGFAIPFA	0.323 ± 0.31
NYIEPQG	0.296 ± 0.97
NYLHFSRRLALWRC	inactive
NYSSINLWPCVMLNFRYL	inactive
NYSVFVTSI	0.365 ± 0.5
NYVYPRVLYSFQVLLYPSKD	0.704 ± 0.49
PAATNAWGWRVPDPGSMIPS	-0.3 ± 0.42
PALKYFEAVVH	inactive
PAMAWSSSMSFRGTILLDFA	-1.44 ± 2.7
PAQEA	0.126 ± 0.45
